Results: US20210087281A1 (AGOMAB THERAPEUTICS, published 2021)

Tests used:
[1] = biological target: T1, native human MET on living cells (human, UniProt P08581 25-1390); experiment: cell-based or functional assay
[2] = biological target: T2, native mouse MET on living cells (mouse, UniProt P16056 25-1379); experiment: cell-based or functional assay
[3] = biological target: T1, native human MET on living cells; experiment: cell-based or functional assay; remark: listed apart in the source
[4] = biological target: T2, native mouse MET on living cells; experiment: cell-based or functional assay; remark: listed apart in the source
[5] = biological target: T1, native human MET on living cells; experiment: cell-based or functional assay; remark: listed apart in the source
[6] = biological target: T2, native mouse MET on living cells; experiment: cell-based or functional assay; remark: listed apart in the source
[7] = biological target: T1, native human MET on living cells; experiment: cell-based or functional assay; remark: listed apart in the source
[8] = biological target: T2, native mouse MET on living cells; experiment: cell-based or functional assay; remark: listed apart in the source
[9] = biological target: T1, native human MET on living cells; experiment: flow cytometry, A549 cells
Method: (§1) We also analysed whether chimeric anti-MET antibodies bound to native human and mouse MET in living cells. […] Antibody binding to cells was analysed by flow cytometry using phycoerythrin-conjugated anti-human IgG1 antibodies (eBioscience) and a CyAn ADP analyser (Beckman Coulter). As a positive control for human MET binding, we used a commercial mouse anti-human MET antibody (R&D Systems) and phycoerythrin-conjugated anti-mouse IgG1 antibodies (eBioscience).
(§2) As a positive control for mouse MET binding we used a commercial goat anti-mouse MET antibody (R&D Systems) and phycoerythrin-conjugated anti-goat IgG1 antibodies (eBioscience). […] Consistent with the data obtained in ELISA, maximal binding (EMAX) varied depending on antibody, but was similar in human and mouse cells.

[10] = biological target: T2, native mouse MET on living cells; experiment: flow cytometry, MLP29 cells
Method: as §1, §2

[11] = biological target: human MET ECD mutant A (mutations 1, 2, 3) (human) (UniProt P08581); experiment: ELISA, MET ECD in solid phase, mAb 0-50 nM
[12] = biological target: human MET ECD mutant D (mutations 1, 2) (human) (UniProt P08581); experiment: ELISA, MET ECD in solid phase, mAb 0-50 nM
[13] = biological target: human MET ECD mutant E (mutations 2, 3, 4) (human) (UniProt P08581); experiment: ELISA, MET ECD in solid phase, mAb 0-50 nM
[14] = biological target: human MET ECD mutant H (mutations 2, 4) (human) (UniProt P08581); experiment: ELISA, MET ECD in solid phase, mAb 0-50 nM
human MET ECD [15] = biological target: T3, human MET ECD (human, UniProt P08581 25-932); experiment: ELISA, MET ECD in solid phase, mAb 0-20 nM
T3 construct: range 1-932; recombinant ECD made by the applicants; the stated range begins at residue 1, so it includes the signal peptide of the entry; also called hMET; hMET ECD
T3 sequence (P08581 25-932 limits assumed, form in doubt): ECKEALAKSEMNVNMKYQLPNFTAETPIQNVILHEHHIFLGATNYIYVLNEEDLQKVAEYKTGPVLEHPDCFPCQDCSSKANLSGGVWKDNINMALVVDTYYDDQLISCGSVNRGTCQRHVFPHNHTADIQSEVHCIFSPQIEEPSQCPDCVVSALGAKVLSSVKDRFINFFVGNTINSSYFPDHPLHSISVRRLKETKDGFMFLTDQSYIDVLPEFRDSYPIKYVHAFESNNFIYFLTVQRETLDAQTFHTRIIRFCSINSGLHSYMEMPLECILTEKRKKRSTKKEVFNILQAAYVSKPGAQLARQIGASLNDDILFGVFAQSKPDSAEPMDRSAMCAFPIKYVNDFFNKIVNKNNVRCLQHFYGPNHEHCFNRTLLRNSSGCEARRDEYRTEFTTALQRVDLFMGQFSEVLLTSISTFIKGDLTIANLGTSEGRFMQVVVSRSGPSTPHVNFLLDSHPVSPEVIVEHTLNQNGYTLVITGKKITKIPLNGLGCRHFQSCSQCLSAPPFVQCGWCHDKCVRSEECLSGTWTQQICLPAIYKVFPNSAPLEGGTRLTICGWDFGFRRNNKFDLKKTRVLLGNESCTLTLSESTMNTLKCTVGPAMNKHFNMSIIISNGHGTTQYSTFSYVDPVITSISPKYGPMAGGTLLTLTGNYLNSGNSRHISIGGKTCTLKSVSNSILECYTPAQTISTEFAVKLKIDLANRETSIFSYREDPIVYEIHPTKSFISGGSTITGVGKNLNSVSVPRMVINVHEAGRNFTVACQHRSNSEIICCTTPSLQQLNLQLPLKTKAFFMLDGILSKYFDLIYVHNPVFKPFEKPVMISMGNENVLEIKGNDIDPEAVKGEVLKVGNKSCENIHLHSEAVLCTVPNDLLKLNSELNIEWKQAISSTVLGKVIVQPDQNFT
Method: (§3) Production (by transient transfection of mammalian cells) and purification (by protein A affinity chromatography) of the resulting chimeric llama-human IgG1 molecules was outsourced to U-protein Express. Binding of chimeric mAbs to MET was determined by ELISA using hMET or mMET ECD in solid phase and increasing concentrations of antibodies (0-20 nM) in solution. […] Binding capacity (EMAX) varied from antibody to antibody, possibly due to partial epitope exposure in the immobilized antigen, but was similar in the human and mouse setting.

mouse MET ECD = biological target: T4, mouse MET ECD (mouse, UniProt P16056 25-931); experiment: ELISA, MET ECD in solid phase, mAb 0-20 nM
T4 construct: range 1-931; recombinant ECD made by the applicants; the stated range begins at residue 1; also called mMET; mMET ECD
Method: as §3

human MET ECD [16] = biological target: T3, human MET ECD; experiment: ELISA, MET ECD in solid phase, mAb 0-50 nM
Method: Using human MET as a template, we mutagenized each of these residues in different permutations, generating a series of MET mutants that are fully human except for specific residues, which are llama. Next, we tested the affinity of selected SEMA-binding mAbs (71D6, 71C3, 71D4, 71A3, 71G2) and PSI-binding mAbs (76H10 and 71G3) for these MET mutants by ELISA. To this end, the various MET proteins were immobilized in solid phase (100 ng/well in a 96-well plate) and then exposed to increasing concentrations of antibodies (0-50 nM) solution. […] Wild-type human MET was used as positive control.
TABLE 18 The epitopes of MET responsible for agonistic antibody binding represent residues conserved among H. sapiens, M. musculus, R. norvegicus, M. fascicularis but not among the same species and L. glama. The relevance of residues conserved among human, mouse, rat, cynomolgus monkey but not llama MET for binding to agonistic mAbs was tested by ELISA. Wild-type (WT) or mutant (MT) human MET ECD was immobilized in solid phase and exposed to increasing concentrations of mAbs in solution. […] All binding values were normalized to the WT protein and are expressed as % binding (EMAX) compared to WT MET.

[17] = biological target: T5, human MET-Fc (R&D Systems) (human, UniProt P08581 25-932); experiment: competition ELISA, hMET-Fc in solid phase, competitor 0.3 nM biotinylated hHGF
T5 construct: extracellular domain; bought chimeric protein; also called hMET; not shown: Fc portion of human IgG1
T5 sequence (P08581 25-932): as the sequence (P08581 25-932 limits assumed, form in doubt) above
Method: (§4) To investigate along this line, we tested the competition between mAbs and HGF by ELISA. Recombinant human and mouse HGF (R&D Systems) were biotinylated at the N-terminus using NHS-LC-biotin (Thermo Scientific). MET-Fc protein, either human or mouse (R&D Systems), was immobilized in solid phase and then exposed to 0.3 nM biotinylated HGF, either human or mouse, in the presence of increasing concentrations of antibodies (0-120 nM).
(§5) A MET-Fc chimeric protein (either human or mouse) was immobilized in solid phase and exposed to a fixed concentration of biotinylated HGF (either human or mouse), in the presence of increasing concentrations of antibodies. […] Antibody-HGF competition is expressed as IC₅₀ (the concentration that achieves 50% competition) and IMAX (the maximum % competition reached at saturation).

[18] = biological target: T6, mouse MET-Fc (R&D Systems) (mouse, UniProt P16056 25-929, limits assumed); experiment: competition ELISA, mMET-Fc in solid phase, competitor 0.3 nM biotinylated mHGF
T6 construct: bought chimeric protein; also called mMET; not shown: Fc part
Method: as §4, §5

T1 sequence (P08581 25-1390): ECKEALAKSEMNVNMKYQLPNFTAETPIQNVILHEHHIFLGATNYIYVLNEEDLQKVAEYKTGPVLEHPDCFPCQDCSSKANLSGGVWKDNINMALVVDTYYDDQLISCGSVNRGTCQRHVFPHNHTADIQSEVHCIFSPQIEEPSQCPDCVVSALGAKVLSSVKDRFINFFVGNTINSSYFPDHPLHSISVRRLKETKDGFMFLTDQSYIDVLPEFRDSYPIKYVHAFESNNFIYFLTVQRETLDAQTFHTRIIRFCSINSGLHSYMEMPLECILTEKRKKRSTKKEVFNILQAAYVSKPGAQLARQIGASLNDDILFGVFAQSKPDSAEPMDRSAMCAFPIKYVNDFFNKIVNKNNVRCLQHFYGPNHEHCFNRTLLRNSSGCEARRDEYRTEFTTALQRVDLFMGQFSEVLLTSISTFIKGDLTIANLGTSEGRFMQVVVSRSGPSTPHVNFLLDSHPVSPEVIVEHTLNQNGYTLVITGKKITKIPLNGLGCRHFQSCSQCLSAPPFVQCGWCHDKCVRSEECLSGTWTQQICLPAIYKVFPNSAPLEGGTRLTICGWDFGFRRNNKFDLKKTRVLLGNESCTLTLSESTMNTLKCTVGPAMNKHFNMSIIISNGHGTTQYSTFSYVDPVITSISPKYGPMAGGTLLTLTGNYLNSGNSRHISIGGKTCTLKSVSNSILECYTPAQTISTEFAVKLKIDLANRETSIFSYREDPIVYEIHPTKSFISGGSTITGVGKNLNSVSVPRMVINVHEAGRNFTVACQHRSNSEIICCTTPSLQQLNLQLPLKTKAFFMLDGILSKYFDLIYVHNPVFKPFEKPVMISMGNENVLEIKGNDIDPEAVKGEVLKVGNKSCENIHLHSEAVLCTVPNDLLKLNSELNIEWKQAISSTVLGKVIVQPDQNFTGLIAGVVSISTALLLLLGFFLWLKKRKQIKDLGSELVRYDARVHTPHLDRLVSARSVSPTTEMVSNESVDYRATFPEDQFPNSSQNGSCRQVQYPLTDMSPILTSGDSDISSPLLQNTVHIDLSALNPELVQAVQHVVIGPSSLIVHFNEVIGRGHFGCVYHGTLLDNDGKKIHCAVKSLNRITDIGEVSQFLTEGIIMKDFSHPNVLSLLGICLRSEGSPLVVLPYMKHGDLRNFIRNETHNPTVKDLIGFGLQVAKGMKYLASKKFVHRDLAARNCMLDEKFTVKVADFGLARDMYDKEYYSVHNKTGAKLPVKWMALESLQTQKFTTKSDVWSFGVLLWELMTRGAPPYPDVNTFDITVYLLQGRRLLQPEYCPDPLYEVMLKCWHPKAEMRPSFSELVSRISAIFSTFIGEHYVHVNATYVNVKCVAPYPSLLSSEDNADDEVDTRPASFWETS

B1: 71D6 chimeric llama-human IgG1 mAb (antibody, V domains shown)
VH: ELQLVESGGGLVQPGGSLRLSCAASGFTFSSYGMSWVRQAPGKGLEWVSAINSYGGSTSYADSVKGRFTISRDNAKNTLYLQMNSLKPEDTAVYYCAKEVRADLSRYNDYESYDYWGQGTQVTVSS
VL: QPVLNQPSALSVTLGQTAKITCQGGSLGARYAHWYQQKPGQAPVLVIYDDDSRPSGIPERFSGSSSGGTATLTISGAQAEDEGDYYCQSADSSGSVFGGGTHLTVL
notes: llama VH on human IgG1 CH1-CH2-CH3, llama VL on human lambda CL
B1 was tested, and the “phospho-MET ELISA EC50, A549 cells” value [1] was 0.32 nM, the “phospho-MET ELISA EMAX (% HGF activity), A549 cells” value [1] was 102% and the “phospho-MET ELISA EC50, MLP29 cells” value [2] was 0.21 nM. For the same binder, the “phospho-MET ELISA EMAX (% HGF activity), MLP29 cells” value [2] was 115%, the “scatter score 0-4, HPAF-II, 0.001 nM” value [3] was 0 score and the “scatter score 0-4, HPAF-II, 0.004 nM” value [3] was 1 score. For the same binder, the “scatter score 0-4, HPAF-II, 0.012 nM” value [3] was 2 score, the “scatter score 0-4, HPAF-II, 0.037 nM” value [3] was 3 score and the “scatter score 0-4, HPAF-II, 0.111 nM” value [3] was 4 score. The “scatter score 0-4, HPAF-II, 0.333 nM” value [3] was 4 score, the “scatter score 0-4, HPAF-II, 1.000 nM” value [3] was 4 score and the “scatter score 0-4, HPAF-II, 3.000 nM” value [3] was 4 score. For the same binder, the “scatter score 0-4, HPAF-II, 9.000 nM” value [3] was 4 score, the “scatter score 0-4, MLP29, 0.001 nM” value [4] was 0 score and the “scatter score 0-4, MLP29, 0.004 nM” value [4] was 1 score. For the same binder, the “scatter score 0-4, MLP29, 0.012 nM” value [4] was 2 score, the “scatter score 0-4, MLP29, 0.037 nM” value [4] was 3 score and the “scatter score 0-4, MLP29, 0.111 nM” value [4] was 4 score. The “scatter score 0-4, MLP29, 0.333 nM” value [4] was 4 score, the “scatter score 0-4, MLP29, 1.000 nM” value [4] was 4 score and the “scatter score 0-4, MLP29, 3.000 nM” value [4] was 4 score. For the same binder, the “scatter score 0-4, MLP29, 9.000 nM” value [4] was 4 score, the “protection from staurosporine, viability EC50, MCF10A cells” value [5] was 1.48 nM and the “protection from staurosporine, viability EMAX, MCF10A cells” value [5] was 66.8%. For the same binder, the “protection from staurosporine, viability EC50, MLP29 cells” value [6] was 0.95 nM, the “protection from staurosporine, viability EMAX, MLP29 cells” value [6] was 68.3% and the “branches per spheroid, LOC cells, 0.5 nM” value [7] was 29 branches. The “branches per spheroid, LOC cells, 2.5 nM” value [7] was 29 branches, the “branches per spheroid, LOC cells, 12.5 nM” value [7] was 32.7 branches and the “branches per spheroid, MLP29 cells, 0.5 nM” value [8] was 32.7 branches. The “branches per spheroid, MLP29 cells, 2.5 nM” value [8] was 39 branches, the “branches per spheroid, MLP29 cells, 12.5 nM” value [8] was 41.3 branches and the EC50 [9] was 0.259 nM. For the same binder, the EMAX [9] was 113 % relative to control, the EC50 [10] was 0.383 nM and the EMAX [10] was 121 % relative to control. For the same binder, the % binding (EMAX) compared to WT MET [11] was 103 % WT MET ECD, the % binding (EMAX) compared to WT MET [12] was 128 % WT MET ECD and the % binding (EMAX) compared to WT MET [13] was 43.6 % WT MET ECD. For the same binder, the % binding (EMAX) compared to WT MET [14] was 38.6 % WT MET ECD, the EC50 (human MET ECD [15]) was 0.026 nM and the “EMAX (OD450)” value (human MET ECD [15]) was 2.08 AU. For the same binder, the EC50 (mouse MET ECD) was 0.049 nM, the “EMAX (OD450)” value (mouse MET ECD) was 2.01 AU and the “% binding (EMAX) compared to WT MET” value (human MET ECD [16]) was 100 % WT MET ECD. It also gave an IC50 [17] of 0.29 nM, an IMAX [17] of 98.3% and an IC50 [18] of 0.34 nM. For the same binder, the IMAX [18] was 90.5%.
